Measurements reported in PMC2566858 (Nucleic Acids Research, 2008).
Numbering of substitutions follows the chain as printed. Read-outs that look alike come from different tables or passages of the source.

Tests used:
Experiment in all cases: fluorescence anisotropy
rGyr_hel K106Q = target: T1, rGyr_hel K106Q (Thermotoga maritima, UniProt O51934 59-541, K106Q)
T1 sequence: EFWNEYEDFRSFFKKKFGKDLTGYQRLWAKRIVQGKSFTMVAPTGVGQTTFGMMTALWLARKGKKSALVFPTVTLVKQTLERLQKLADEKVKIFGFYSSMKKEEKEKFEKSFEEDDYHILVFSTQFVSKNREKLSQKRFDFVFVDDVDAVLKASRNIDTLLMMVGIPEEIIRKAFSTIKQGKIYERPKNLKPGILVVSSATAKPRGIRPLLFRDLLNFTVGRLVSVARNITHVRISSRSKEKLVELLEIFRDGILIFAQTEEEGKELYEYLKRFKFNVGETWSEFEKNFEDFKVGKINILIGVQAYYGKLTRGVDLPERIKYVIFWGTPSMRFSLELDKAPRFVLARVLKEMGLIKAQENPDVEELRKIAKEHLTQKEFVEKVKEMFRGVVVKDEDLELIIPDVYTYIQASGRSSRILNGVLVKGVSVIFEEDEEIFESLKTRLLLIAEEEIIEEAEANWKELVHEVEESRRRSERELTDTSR

[1] = target: T2, rGyr_hel (reverse gyrase helicase-like domain) (Thermotoga maritima, UniProt O51934 59-541)
T2 sequence: T1 sequence with Q48K

[2] = target: T2, rGyr_hel (reverse gyrase helicase-like …); remark: listed apart in the source
[3] = target: T3, rGyr_fl Y851F (full-length reverse gyrase) (Thermotoga maritima, UniProt O51934 1-1104, Y851F)
T3 sequence: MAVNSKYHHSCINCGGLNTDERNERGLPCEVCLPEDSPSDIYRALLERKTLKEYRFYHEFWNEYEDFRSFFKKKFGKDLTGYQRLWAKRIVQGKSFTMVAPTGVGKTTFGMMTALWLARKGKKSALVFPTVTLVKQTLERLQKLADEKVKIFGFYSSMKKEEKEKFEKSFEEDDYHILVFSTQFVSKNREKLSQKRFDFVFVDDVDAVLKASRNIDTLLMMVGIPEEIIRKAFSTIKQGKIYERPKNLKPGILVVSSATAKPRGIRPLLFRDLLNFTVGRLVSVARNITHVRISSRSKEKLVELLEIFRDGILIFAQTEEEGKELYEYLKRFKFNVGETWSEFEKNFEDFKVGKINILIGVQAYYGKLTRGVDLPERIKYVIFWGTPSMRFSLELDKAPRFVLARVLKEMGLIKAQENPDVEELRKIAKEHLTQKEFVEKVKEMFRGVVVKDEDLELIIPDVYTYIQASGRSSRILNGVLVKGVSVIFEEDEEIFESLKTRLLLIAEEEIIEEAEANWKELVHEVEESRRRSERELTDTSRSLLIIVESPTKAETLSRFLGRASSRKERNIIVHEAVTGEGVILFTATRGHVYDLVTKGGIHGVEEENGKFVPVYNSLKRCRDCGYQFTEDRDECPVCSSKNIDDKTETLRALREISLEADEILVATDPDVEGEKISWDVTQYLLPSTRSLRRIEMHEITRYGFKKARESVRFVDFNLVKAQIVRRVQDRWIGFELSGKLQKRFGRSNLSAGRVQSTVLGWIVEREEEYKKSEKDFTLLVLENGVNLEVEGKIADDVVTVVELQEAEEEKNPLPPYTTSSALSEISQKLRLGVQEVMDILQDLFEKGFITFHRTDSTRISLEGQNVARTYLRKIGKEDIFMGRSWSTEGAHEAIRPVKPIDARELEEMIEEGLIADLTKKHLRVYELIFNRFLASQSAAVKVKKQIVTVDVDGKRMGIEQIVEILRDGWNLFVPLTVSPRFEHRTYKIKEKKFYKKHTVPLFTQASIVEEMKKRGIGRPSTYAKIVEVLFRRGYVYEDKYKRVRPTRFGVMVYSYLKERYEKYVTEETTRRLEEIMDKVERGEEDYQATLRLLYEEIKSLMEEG

[4] = target: T3, rGyr_fl Y851F (full-length reverse …); remark: listed apart in the source
[5] = target: T2, rGyr_hel (reverse gyrase helicase-like …); remark: listed apart in the source

B1: 60-base ssDNA (ssDNA)
DNA: AAGCCAAGCTTCTAGAGTCAGCCCGTGATATTCATTACTTCTTATCCTAGGATCCCCGTT
- Kd (rGyr_hel K106Q): 180 ± 30 nM
- Kd [1]: 280 ± 10 nM
- Kd [2]: 330 ± 10 nM
- Kd [3]: 39 ± 1 nM
- Kd [4]: 45 ± 2 nM
- Kd [5]: 460 ± 30 nM
